Test results reported in the supplement of paper PMC12764529.
± gives the half width of the 95% confidence interval.

Legend:
[1] = folding stability dG unfold from trypsin proteolysis; higher = more stable
Outline: (§1)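 Designed mini-proteins (under 80 residues, no cysteine) in a PA-tagged cDNA display construct were digested with trypsin and chymotrypsin. Each protease was used at 11 concentrations (threefold dilutions) plus a no-protease condition, followed by sequencing. K50 was inferred by Bayesian fitting of sequencing counts, and unfolding free energy was derived against a sequence-predicted unfolded-state K50 and a shared folded-state K50, per protease or combined. Only designs with AlphaFold2 dimer inter-PAE above 15 were kept.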

[2] = folding stability dG unfold from chymotrypsin proteolysis; higher = more stable
Outline: as §1

[3] = folding stability dG unfold (combined trypsin and chymotrypsin); higher = more stable
Outline: as §1

Sequence	folding stability dG unfold [1]	folding stability dG unfold [2]	folding stability dG unfold [3]
SAGGSAGGSMVEGELPDAKVTVFFHPDGGALALVEFETETVLARIDVLPDDTLKITVIPAKDASAGGSAGGS [r12_669_TrMRF]	2.05 ± 0.05 kcal/mol	2.252 ± 0.01 kcal/mol	2.16 ± 0.072 kcal/mol
SAGGSAGGSMVIRVTTKDGEEVELEIEGMSLEEIKALLPEGVKEVKIEKVEVEPVEVEEEEEESAGGSAGGS [r12_767_TrROS_Hall]	1.31 ± 0.1 kcal/mol	1.99 ± 0.27 kcal/mol	1.72 ± 0.21 kcal/mol
SAGGSAGGSMVLRIKTEDGEEIEIELPEELKELSAEEIAELLGLDEVKVVEVEVVEPEEEEEESAGGSAGGS [r12_411_TrROS_Hall]	0.256 ± 0.043 kcal/mol	2.01 ± 0.05 kcal/mol	1.66 ± 0.19 kcal/mol
SAGGSAGGSMVRVTRLPDGTYRIEIELPGESLEREARGPEEVEALAEEIEKETGVPVEIETLESAGGSAGGS [r12_783_JUSTAS]	1.1 ± 0.068 kcal/mol	0.908 ± 0.096 kcal/mol	0.945 ± 0.14 kcal/mol
SAGGSAGGSMVYTPPEVLTPVREVTITVTTSSYSPSGGTPVTSTSTVPVLVYKDPSGRTAIVPPSAGGSAGG [r6_278_JUSTAS]	-0.0213 ± 0.072 kcal/mol	0.195 ± 0.19 kcal/mol	0.159 ± 0.11 kcal/mol
SAGGSAGGSMYLIRVTTEDNIELTFLVSEDDIEAFEAFAKALAELFPVPVKVEIEPVEEGEEVSAGGSAGGS [r12_385_TrMRF]	3.2 ± 0.16 kcal/mol	3.74 ± 0.043 kcal/mol	3.54 ± 0.086 kcal/mol
SAGGSAGGSMYYVVVTRPGGRPEVIVVPTETLEEVEEVAARIAEALRELGIPEEELEIRVLPVSAGGSAGGS [r12_295_TrMRF]	2.4 ± 0.046 kcal/mol	1.679 ± 0.016 kcal/mol	2.03 ± 0.091 kcal/mol
SAGGSAGGSNDPPEIKIDYEYNPNNGMYTANITIPNGRKLKITFPGDDAEDAEEQAKNLIEKLSAGGSAGGS [r12_339_TrROS]	0.539 ± 0.089 kcal/mol	1.57 ± 0.091 kcal/mol	1.28 ± 0.38 kcal/mol
SAGGSAGGSNFRIIEFDIKLKIPVMKMEPDPDGKPKMEMQPVKIPIKVTIFVFGNGIFIMITFSAGGSAGGS [r20_58_TrROS]	3.42 ± 0.24 kcal/mol	5.29 ± 0.16 kcal/mol	5.11 ± 0.29 kcal/mol
SAGGSAGGSNGKKIEIDIFWPRPMAETIVKELWKGSNIKPIKIKVIPMPEDDPKYKEFMDKLKSAGGSAGGS [r12_649_TrROS]	0.109 ± 0.079 kcal/mol	0.188 ± 0.12 kcal/mol	0.247 ± 0.12 kcal/mol
SAGGSAGGSNIKIPSLQIYPNPNGYYISIKIEHEHPDPDGKKHEVEMSFMIWVPPGESLEDLFSAGGSAGGS [r12_889_TrROS]	2.1 ± 0.078 kcal/mol	2.43 ± 0.049 kcal/mol	2.29 ± 0.12 kcal/mol
SAGGSAGGSNMPPGMEVEMEPIIEREIKNPNGRKLKIKIYVMKIRPPGGPPMFFIALDIQILDSAGGSAGGS [r12_544_TrROS]	3.48 ± 0.16 kcal/mol	5.03 ± 0.28 kcal/mol	4.52 ± 0.22 kcal/mol
SAGGSAGGSNRLVFRFGGYYYVVEIKPPNGKEETIMMPPDDIDDLPKNWKVEVEPIKPGQPIPSAGGSAGGS [r12_419_TrROS]	1.09 ± 0.12 kcal/mol	1.46 ± 0.23 kcal/mol	1.18 ± 0.2 kcal/mol
SAGGSAGGSNYINVKIEIWDPPNGKEREITINIPVPPGDPDYLKEIVNELASNFPGYYVKVEISAGGSAGGS [r12_795_TrROS]	1.61 ± 0.11 kcal/mol	1.61 ± 0.058 kcal/mol	1.64 ± 0.23 kcal/mol
SAGGSAGGSNYVVRIKIRYPDPDGKPIYEHTIDIPVPDEEITADELRKQLKPPGYEITDIEVLSAGGSAGGS [r12_611_TrROS]	0.509 ± 0.028 kcal/mol	0.314 ± 0.16 kcal/mol	0.57 ± 0.12 kcal/mol
SAGGSAGGSPDNWITFIFISISYKWKITKWDPENGGWKIEIKDVSIEIEIIRLPADDADKLFKSAGGSAGGS [r12_723_TrROS]	2.63 ± 0.079 kcal/mol	4.34 ± 0.062 kcal/mol	3.85 ± 0.13 kcal/mol

Sequence	folding stability dG unfold [1]	folding stability dG unfold [2]	folding stability dG unfold [3]
SAGGSAGGSPDVVVTVEKNEDGEETVTVLMSREDVERLAAALPDVKVEELPDGLVLLTVRVKPSAGGSAGGS [r20_231_TrROS_Hall]	0.51 ± 0.038 kcal/mol	0.827 ± 0.07 kcal/mol	0.728 ± 0.089 kcal/mol
SAGGSAGGSPEAPADRKLVALLRSPDSDTVYLVEITPDGIVAYNANNEKTPVSPEYLVAVFDASAGGSAGGS [r20_35_TrMRF]	0.883 ± 0.012 kcal/mol	1.09 ± 0.054 kcal/mol	1.02 ± 0.036 kcal/mol
SAGGSAGGSPEAVVVQTPDGRWLVFLRGPDGSVRPIVVPAGRPEALREVAEELGLTVENLDPVSAGGSAGGS [r12_891_TrMRF]	1.83 ± 0.052 kcal/mol	2.1 ± 0.04 kcal/mol	2 ± 0.065 kcal/mol
SAGGSAGGSPEEFEIKIVEPTPIEINPNGSVSLTFTVPNGWYLRIMIMRPPDGNPQPMIMIIPSAGGSAGGS [r20_240_TrROS]	2.86 ± 0.086 kcal/mol	3.54 ± 0.062 kcal/mol	3.22 ± 0.11 kcal/mol
SAGGSAGGSPIDITDIEVEQHEHPDGQQYHEVKIRLPDGRPIKIWMSPGSTPDQVLKQAKEFISAGGSAGGS [r12_1047_TrROS]	-0.137 ± 0.12 kcal/mol	-0.0705 ± 0.26 kcal/mol	0.0598 ± 0.17 kcal/mol
SAGGSAGGSPKIEIEQDPNGWWRVKIRPPDGKKRPINIPPGDPEKILDEAEENGWKIDEIEPWSAGGSAGGS [r12_891_TrROS]	-0.045 ± 0.2 kcal/mol	0.631 ± 0.14 kcal/mol	0.404 ± 0.12 kcal/mol
SAGGSAGGSPKIELLDSRPRPDGSLVELLAIEAEDEIRLLVIVTHPDGVDIRFFEPEYPDLDLSAGGSAGGS [r12_315_TrMRF]	0.386 ± 0.15 kcal/mol	0.008 ± 0.18 kcal/mol	0.279 ± 0.3 kcal/mol
SAGGSAGGSPKIKEVKYIPPTGKIEVLIELPNGKPIKVTFDPKIKVNPVFYNGKPIFYFTGNPSAGGSAGGS [r12_789_TrMRF]	0.925 ± 0.015 kcal/mol	1.21 ± 0.073 kcal/mol	1.19 ± 0.076 kcal/mol
SAGGSAGGSPKITVDPNTGKVLIEIPGPSGTALIIAEVKDGKITRVDIIGPPELREAIKKLLGSAGGSAGGS [r20_112_TrMRF]	2.19 ± 0.082 kcal/mol	2.04 ± 0.092 kcal/mol	2.08 ± 0.073 kcal/mol
SAGGSAGGSPKPKVKKFNMEPVEIEPNPDNGHLSIRFPNGYYIQFHYDDDGEYELQIMPPDDLSAGGSAGGS [r12_351_TrROS]	-0.0555 ± 0.14 kcal/mol	0.764 ± 0.14 kcal/mol	0.455 ± 0.17 kcal/mol
SAGGSAGGSPLAPGQTVTVRVERVDGPVVITVRNEATGETLTLTFDRPAEDLKPGDTVTVTVTSAGGSAGGS [r12_525_TrROS_Hall]	2.05 ± 0.039 kcal/mol	2.897 ± 0.021 kcal/mol	2.54 ± 0.045 kcal/mol
SAGGSAGGSPLPPEVYKIRLKVDGKWYEALARVKPDGTVEVFLKDTGKTFTVPLKDLEIEKLDSAGGSAGGS [r12_782_TrROS_Hall]	3.25 ± 0.19 kcal/mol	3.51 ± 0.064 kcal/mol	3.35 ± 0.14 kcal/mol
SAGGSAGGSPMVVFEFKIKDPKIRKAIDEAKKDGDKSAEIPFPNGWPIRITEIEDNYIRITIWSAGGSAGGS [r12_334_TrROS]	1.17 ± 0.058 kcal/mol	2.18 ± 0.14 kcal/mol	1.69 ± 0.2 kcal/mol
SAGGSAGGSPNRKEIYIPISEEQFKENGMTPEEIADRIAEKFPHIPPNVRIEYPPNGWIKITVSAGGSAGGS [r12_50_TrROS]	0.198 ± 0.11 kcal/mol	-0.208 ± 0.33 kcal/mol	0.229 ± 0.21 kcal/mol
SAGGSAGGSPNYRTVTVTLPNGEVYVIDVSQLIESDPNYVPGDPISDEELVALAKKRAEELELSSAGGSAGG [r6_65_JUSTAS]	2.71 ± 0.051 kcal/mol	3.249 ± 0.031 kcal/mol	3.04 ± 0.041 kcal/mol
